The supplement of paper PMC9112550, “Optimization of the antimicrobial peptide Bac7 by deep mutational scanning” (BMC Biology, 2022)

Tested on: Escherichia coli TOP10
Assay: shrunken log2 fold change of peptide-encoding DNA abundance (4.5 h post-induction vs induction); higher = less antimicrobial activity (less host growth inhibition)
Conditions: time post-induction: 4.5 h; library: site-saturation at positions 5, 18, 19, 20
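Further: peptides expressed intracellularly from a pBAD plasmid library in pooled LB shake-flask culture, induced with 0.3% L-arabinose, DNA abundance read by NGS, three biological replicates, DESeq2 with apeglm shrinkage.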

Row | Sequence | shrunken log2 fold change
1 | RRIRQRPPRLPRPRPRPSSLPRP | -0.728
2 | RRIRPRPPRLPRPRPRPPATPRP | 0.939
3 | RRIRFRPPRLPRPRPRPKNWPRP | 0.31
4 | RRIRMRPPRLPRPRPRPLWRPRP | 0.704
5 | RRIRIRPPRLPRPRPRPIIVPRP | -0.666
6 | RRIRVRPPRLPRPRPRPFKYPRP | -0.0213
7 | RRIRHRPPRLPRPRPRPVVPPRP | -0.0888
8 | RRIRFRPPRLPRPRPRPQEAPRP | 0.201
9 | RRIRFRPPRLPRPRPRPFMKPRP | 1.71
10 | RRIRYRPPRLPRPRPRPRVDPRP | -0.531
11 | RRIRGRPPRLPRPRPRPTKVPRP | 0.414
12 | RRIRLRPPRLPRPRPRPILVPRP | -0.157
13 | RRIRMRPPRLPRPRPRPDESPRP | 2.38
14 | RRIRNRPPRLPRPRPRPYESPRP | -0.829
15 | RRIRARPPRLPRPRPRPHTHPRP | -0.175
16 | RRIRMRPPRLPRPRPRPVIQPRP | 0.257
17 | RRIRIRPPRLPRPRPRPAGQPRP | 0.0455
18 | RRIRQRPPRLPRPRPRPSRNPRP | -0.0593
19 | RRIRWRPPRLPRPRPRPFPAPRP | 0.342
20 | RRIRIRPPRLPRPRPRPWMMPRP | -0.178
21 | RRIRTRPPRLPRPRPRPLHMPRP | -0.369
22 | RRIRERPPRLPRPRPRPVPYPRP | -0.132

Row | Sequence | shrunken log2 fold change
23 | RRIRIRPPRLPRPRPRPPFHPRP | -0.513
24 | RRIRERPPRLPRPRPRPSGFPRP | 0.0785
25 | RRIRNRPPRLPRPRPRPHDCPRP | -0.124
26 | RRIRYRPPRLPRPRPRPLWCPRP | -0.125
27 | RRIRFRPPRLPRPRPRPLCHPRP | -0.271
28 | RRIRSRPPRLPRPRPRPWGYPRP | -0.226
29 | RRIRARPPRLPRPRPRPSDTPRP | -0.339
30 | RRIRWRPPRLPRPRPRPIMLPRP | 0.464
31 | RRIRDRPPRLPRPRPRPNNFPRP | -0.418
32 | RRIRWRPPRLPRPRPRPYHKPRP | -0.118
33 | RRIRMRPPRLPRPRPRPQKCPRP | -0.0433
34 | RRIRYRPPRLPRPRPRPCTQPRP | -1.32
35 | RRIRERPPRLPRPRPRPVYIPRP | -0.0234
36 | RRIRFRPPRLPRPRPRPPEHPRP | 0.682
37 | RRIRVRPPRLPRPRPRPVDFPRP | -0.289
38 | RRIRARPPRLPRPRPRPVPSPRP | 0.181
39 | RRIRGRPPRLPRPRPRPHACPRP | -0.0193
40 | RRIRRRPPRLPRPRPRPENPPRP | 0.541
41 | RRIRQRPPRLPRPRPRPFMYPRP | 0.000979
42 | RRIRGRPPRLPRPRPRPTWKPRP | 0.847
43 | RRIRNRPPRLPRPRPRPHDLPRP | 0.0667
44 | RRIRWRPPRLPRPRPRPSEDPRP | 0.145

Row | Sequence | shrunken log2 fold change
45 | RRIRSRPPRLPRPRPRPRTCPRP | 0.0915
46 | RRIRTRPPRLPRPRPRPKLSPRP | 0.197
47 | RRIRTRPPRLPRPRPRPHTDPRP | -0.401
48 | RRIRSRPPRLPRPRPRPHYWPRP | -0.519
49 | RRIRSRPPRLPRPRPRPLTFPRP | 0.182
50 | RRIRERPPRLPRPRPRPIACPRP | -0.23
51 | RRIRYRPPRLPRPRPRPEFNPRP | -0.221
52 | RRIRNRPPRLPRPRPRPQNTPRP | -0.589
53 | RRIRIRPPRLPRPRPRPAETPRP | -0.0338
54 | RRIRQRPPRLPRPRPRPVWSPRP | -0.176
55 | RRIRKRPPRLPRPRPRPPQNPRP | 0.723
56 | RRIRERPPRLPRPRPRPVAVPRP | -0.0937
57 | RRIRGRPPRLPRPRPRPVTEPRP | 0.706
58 | RRIRYRPPRLPRPRPRPIELPRP | -0.0405
59 | RRIRGRPPRLPRPRPRPCLFPRP | 0.346
60 | RRIRARPPRLPRPRPRPIEFPRP | -0.0488
61 | RRIRGRPPRLPRPRPRPWAGPRP | 0.188
62 | RRIRFRPPRLPRPRPRPMQIPRP | -0.147
63 | RRIRYRPPRLPRPRPRPDSRPRP | -0.0156
64 | RRIRERPPRLPRPRPRPMAAPRP | 0.421
65 | RRIRTRPPRLPRPRPRPDFQPRP | 0.00444
66 | RRIRARPPRLPRPRPRPEAEPRP | 1.61

Row | Sequence | shrunken log2 fold change
67 | RRIRFRPPRLPRPRPRPAGNPRP | 0.135
68 | RRIRIRPPRLPRPRPRPDARPRP | 0.262
69 | RRIRKRPPRLPRPRPRPYSVPRP | -0.114
70 | RRIRMRPPRLPRPRPRPFRKPRP | -0.0166
71 | RRIRCRPPRLPRPRPRPYKEPRP | 0.0662
72 | RRIRDRPPRLPRPRPRPFIHPRP | -0.572
73 | RRIRYRPPRLPRPRPRPAVGPRP | 0.0398
74 | RRIRCRPPRLPRPRPRPEVFPRP | 0.00979
75 | RRIRGRPPRLPRPRPRPWKHPRP | -0.161
76 | RRIRLRPPRLPRPRPRPMKLPRP | -0.187
77 | RRIRMRPPRLPRPRPRPIDKPRP | -0.197
78 | RRIRLRPPRLPRPRPRPTWIPRP | 0.0209
79 | RRIRWRPPRLPRPRPRPCYMPRP | -0.282
80 | RRIRGRPPRLPRPRPRPVYMPRP | 0.361
81 | RRIRPRPPRLPRPRPRPAKQPRP | 0.0651
82 | RRIRCRPPRLPRPRPRPHLIPRP | 0.282
83 | RRIRWRPPRLPRPRPRPWWQPRP | 0.16
84 | RRIRERPPRLPRPRPRPVGPPRP | -0.0231
85 | RRIRWRPPRLPRPRPRPRVCPRP | 0.347
86 | RRIRGRPPRLPRPRPRPLWVPRP | 0.472
87 | RRIRERPPRLPRPRPRPKWEPRP | 0.0179
88 | RRIRDRPPRLPRPRPRPEPIPRP | -0.0153

Row | Sequence | shrunken log2 fold change
89 | RRIRKRPPRLPRPRPRPSVKPRP | -0.358
90 | RRIRARPPRLPRPRPRPLFTPRP | 0.0936
91 | RRIRFRPPRLPRPRPRPFDWPRP | 0.109
92 | RRIRARPPRLPRPRPRPSIFPRP | -0.101
93 | RRIRDRPPRLPRPRPRPCMFPRP | -0.00227
94 | RRIRSRPPRLPRPRPRPINCPRP | -0.159
95 | RRIRTRPPRLPRPRPRPSFPPRP | -0.261
96 | RRIRMRPPRLPRPRPRPFWPPRP | 1.3
97 | RRIRNRPPRLPRPRPRPRKCPRP | -0.0149
98 | RRIRERPPRLPRPRPRPDYHPRP | -0.486
99 | RRIRARPPRLPRPRPRPNYWPRP | 0.0678
100 | RRIRDRPPRLPRPRPRPAHLPRP | 0.0723
101 | RRIRQRPPRLPRPRPRPVNGPRP | -0.0109
102 | RRIRERPPRLPRPRPRPVMQPRP | 0.095
103 | RRIRPRPPRLPRPRPRPCEHPRP | 0.099
104 | RRIRERPPRLPRPRPRPCRLPRP | -0.197
105 | RRIRHRPPRLPRPRPRPIIHPRP | 0.142
106 | RRIRARPPRLPRPRPRPTVAPRP | 0.779
107 | RRIRARPPRLPRPRPRPYVFPRP | -0.245
108 | RRIRKRPPRLPRPRPRPYVCPRP | -0.0742
109 | RRIRWRPPRLPRPRPRPVKIPRP | -0.142
